B1: Compound 37a (peptide)
peptide: {CH2CO}-FNFEDQSAHTWQPCG-NH2
modifications: thioether N-14
SMILES: C[C@@H]1NC(=O)[C@H](CO)NC(=O)[C@H](CCC(N)=O)NC(=O)[C@H](CC(=O)O)NC(=O)[C@H](CCC(=O)O)NC(=O)[C@H](Cc2ccccc2)NC(=O)[C@H](CC(N)=O)NC(=O)[C@H](Cc2ccccc2)NC(=O)CSC[C@@H](C(=O)NCC(N)=O)NC(=O)[C@@H]2CCCN2C(=O)[C@H](CCC(N)=O)NC(=O)[C@H](Cc2c[nH]c3ccccc23)NC(=O)[C@H]([C@@H](C)O)NC(=O)[C@H](Cc2c[nH]cn2)NC1=O
B2: Compound 44a (peptide)
peptide: {CH2CO}-FNFEDQSPATWQPCG-NH2
modifications: thioether N-14
SMILES: C[C@@H]1NC(=O)[C@@H]2CCCN2C(=O)[C@H](CO)NC(=O)[C@H](CCC(N)=O)NC(=O)[C@H](CC(=O)O)NC(=O)[C@H](CCC(=O)O)NC(=O)[C@H](Cc2ccccc2)NC(=O)[C@H](CC(N)=O)NC(=O)[C@H](Cc2ccccc2)NC(=O)CSC[C@@H](C(=O)NCC(N)=O)NC(=O)[C@@H]2CCCN2C(=O)[C@H](CCC(N)=O)NC(=O)[C@H](Cc2c[nH]c3ccccc23)NC(=O)[C@H]([C@@H](C)O)NC1=O
B3: Compound 39a (peptide)
peptide: {CH2CO}-YNFEDQSPDTWQPCG-NH2
modifications: thioether N-14
SMILES: C[C@@H](O)[C@@H]1NC(=O)[C@H](CC(=O)O)NC(=O)[C@@H]2CCCN2C(=O)[C@H](CO)NC(=O)[C@H](CCC(N)=O)NC(=O)[C@H](CC(=O)O)NC(=O)[C@H](CCC(=O)O)NC(=O)[C@H](Cc2ccccc2)NC(=O)[C@H](CC(N)=O)NC(=O)[C@H](Cc2ccc(O)cc2)NC(=O)CSC[C@@H](C(=O)NCC(N)=O)NC(=O)[C@@H]2CCCN2C(=O)[C@H](CCC(N)=O)NC(=O)[C@H](Cc2c[nH]c3ccccc23)NC1=O
B4: Compound 57a (peptide)
peptide: {CH2CO}-FNFEDQSPSTWQPCG-NH2
modifications: thioether N-14
SMILES: C[C@@H](O)[C@@H]1NC(=O)[C@H](CO)NC(=O)[C@@H]2CCCN2C(=O)[C@H](CO)NC(=O)[C@H](CCC(N)=O)NC(=O)[C@H](CC(=O)O)NC(=O)[C@H](CCC(=O)O)NC(=O)[C@H](Cc2ccccc2)NC(=O)[C@H](CC(N)=O)NC(=O)[C@H](Cc2ccccc2)NC(=O)CSC[C@@H](C(=O)NCC(N)=O)NC(=O)[C@@H]2CCCN2C(=O)[C@H](CCC(N)=O)NC(=O)[C@H](Cc2c[nH]c3ccccc23)NC1=O
B5: Compound 56a (peptide)
peptide: {CH2CO}-FNFEDQSPQTWQPCG-NH2
modifications: thioether N-14
SMILES: C[C@@H](O)[C@@H]1NC(=O)[C@H](CCC(N)=O)NC(=O)[C@@H]2CCCN2C(=O)[C@H](CO)NC(=O)[C@H](CCC(N)=O)NC(=O)[C@H](CC(=O)O)NC(=O)[C@H](CCC(=O)O)NC(=O)[C@H](Cc2ccccc2)NC(=O)[C@H](CC(N)=O)NC(=O)[C@H](Cc2ccccc2)NC(=O)CSC[C@@H](C(=O)NCC(N)=O)NC(=O)[C@@H]2CCCN2C(=O)[C@H](CCC(N)=O)NC(=O)[C@H](Cc2c[nH]c3ccccc23)NC1=O
B6: Compound 58a (peptide)
peptide: {CH2CO}-FNFEDQSPKTWQPCG-NH2
modifications: thioether N-14
SMILES: C[C@@H](O)[C@@H]1NC(=O)[C@H](CCCCN)NC(=O)[C@@H]2CCCN2C(=O)[C@H](CO)NC(=O)[C@H](CCC(N)=O)NC(=O)[C@H](CC(=O)O)NC(=O)[C@H](CCC(=O)O)NC(=O)[C@H](Cc2ccccc2)NC(=O)[C@H](CC(N)=O)NC(=O)[C@H](Cc2ccccc2)NC(=O)CSC[C@@H](C(=O)NCC(N)=O)NC(=O)[C@@H]2CCCN2C(=O)[C@H](CCC(N)=O)NC(=O)[C@H](Cc2c[nH]c3ccccc23)NC1=O
B7: Compound 46a (peptide)
peptide: {CH2CO}-FNFEDQSPRTWQPCG-NH2
modifications: thioether N-14
SMILES: C[C@@H](O)[C@@H]1NC(=O)[C@H](CCCNC(=N)N)NC(=O)[C@@H]2CCCN2C(=O)[C@H](CO)NC(=O)[C@H](CCC(N)=O)NC(=O)[C@H](CC(=O)O)NC(=O)[C@H](CCC(=O)O)NC(=O)[C@H](Cc2ccccc2)NC(=O)[C@H](CC(N)=O)NC(=O)[C@H](Cc2ccccc2)NC(=O)CSC[C@@H](C(=O)NCC(N)=O)NC(=O)[C@@H]2CCCN2C(=O)[C@H](CCC(N)=O)NC(=O)[C@H](Cc2c[nH]c3ccccc23)NC1=O
B8: Compound 65a (peptide)
peptide: {CH2CO}-FNFEDQSPGTWQPCG-NH2
modifications: thioether N-14
SMILES: C[C@@H](O)[C@@H]1NC(=O)CNC(=O)[C@@H]2CCCN2C(=O)[C@H](CO)NC(=O)[C@H](CCC(N)=O)NC(=O)[C@H](CC(=O)O)NC(=O)[C@H](CCC(=O)O)NC(=O)[C@H](Cc2ccccc2)NC(=O)[C@H](CC(N)=O)NC(=O)[C@H](Cc2ccccc2)NC(=O)CSC[C@@H](C(=O)NCC(N)=O)NC(=O)[C@@H]2CCCN2C(=O)[C@H](CCC(N)=O)NC(=O)[C@H](Cc2c[nH]c3ccccc23)NC1=O
B9: Compound 63a (peptide)
peptide: {CH2CO}-FNFEDQGPDTWQPCG-NH2
modifications: thioether N-14
SMILES: C[C@@H](O)[C@@H]1NC(=O)[C@H](CC(=O)O)NC(=O)[C@@H]2CCCN2C(=O)CNC(=O)[C@H](CCC(N)=O)NC(=O)[C@H](CC(=O)O)NC(=O)[C@H](CCC(=O)O)NC(=O)[C@H](Cc2ccccc2)NC(=O)[C@H](CC(N)=O)NC(=O)[C@H](Cc2ccccc2)NC(=O)CSC[C@@H](C(=O)NCC(N)=O)NC(=O)[C@@H]2CCCN2C(=O)[C@H](CCC(N)=O)NC(=O)[C@H](Cc2c[nH]c3ccccc23)NC1=O
B10: Compound 67a (peptide)
peptide: {CH2CO}-FNFEDQSPDTWQ[NMeA]CG-NH2
modifications: thioether N-14
SMILES: C[C@@H](O)[C@@H]1NC(=O)[C@H](CC(=O)O)NC(=O)[C@@H]2CCCN2C(=O)[C@H](CO)NC(=O)[C@H](CCC(N)=O)NC(=O)[C@H](CC(=O)O)NC(=O)[C@H](CCC(=O)O)NC(=O)[C@H](Cc2ccccc2)NC(=O)[C@H](CC(N)=O)NC(=O)[C@H](Cc2ccccc2)NC(=O)CSC[C@@H](C(=O)NCC(N)=O)NC(=O)[C@H](C)N(C)C(=O)[C@H](CCC(N)=O)NC(=O)[C@H](Cc2c[nH]c3ccccc23)NC1=O
B11: Compound 59a (peptide)
peptide: {CH2CO}-FNFEDQSPYTWQPCG-NH2
modifications: thioether N-14
SMILES: C[C@@H](O)[C@@H]1NC(=O)[C@H](Cc2ccc(O)cc2)NC(=O)[C@@H]2CCCN2C(=O)[C@H](CO)NC(=O)[C@H](CCC(N)=O)NC(=O)[C@H](CC(=O)O)NC(=O)[C@H](CCC(=O)O)NC(=O)[C@H](Cc2ccccc2)NC(=O)[C@H](CC(N)=O)NC(=O)[C@H](Cc2ccccc2)NC(=O)CSC[C@@H](C(=O)NCC(N)=O)NC(=O)[C@@H]2CCCN2C(=O)[C@H](CCC(N)=O)NC(=O)[C@H](Cc2c[nH]c3ccccc23)NC1=O
B12: Compound 68a (peptide)
peptide: {CH2CO}-FNFEDQSPDTWQ[NEtAla]CG-NH2
modifications: thioether N-14
SMILES: CCN1C(=O)[C@H](CCC(N)=O)NC(=O)[C@H](Cc2c[nH]c3ccccc23)NC(=O)[C@H]([C@@H](C)O)NC(=O)[C@H](CC(=O)O)NC(=O)[C@@H]2CCCN2C(=O)[C@H](CO)NC(=O)[C@H](CCC(N)=O)NC(=O)[C@H](CC(=O)O)NC(=O)[C@H](CCC(=O)O)NC(=O)[C@H](Cc2ccccc2)NC(=O)[C@H](CC(N)=O)NC(=O)[C@H](Cc2ccccc2)NC(=O)CSC[C@@H](C(=O)NCC(N)=O)NC(=O)[C@@H]1C
B13: Compound 60a (peptide)
peptide: {CH2CO}-FNFEDQSPHTWQPCG-NH2
modifications: thioether N-14
SMILES: C[C@@H](O)[C@@H]1NC(=O)[C@H](Cc2c[nH]cn2)NC(=O)[C@@H]2CCCN2C(=O)[C@H](CO)NC(=O)[C@H](CCC(N)=O)NC(=O)[C@H](CC(=O)O)NC(=O)[C@H](CCC(=O)O)NC(=O)[C@H](Cc2ccccc2)NC(=O)[C@H](CC(N)=O)NC(=O)[C@H](Cc2ccccc2)NC(=O)CSC[C@@H](C(=O)NCC(N)=O)NC(=O)[C@@H]2CCCN2C(=O)[C@H](CCC(N)=O)NC(=O)[C@H](Cc2c[nH]c3ccccc23)NC1=O

Bridge positions count the residues as written; N and C are the ends. Square brackets hold non-standard residues; d marks the D form. NEtAla = CCN[C@@H](C)C(=O)O; NMeA = CN[C@@H](C)C(=O)O

The target of the assay is T1, human Granzyme B (human, UniProt P10144 21-247).
T1 construct: Captured on a Series S Streptavidin chip for SPR; also called hGranzyme B; GzmB
T1 sequence (P10144 21-247 limits assumed): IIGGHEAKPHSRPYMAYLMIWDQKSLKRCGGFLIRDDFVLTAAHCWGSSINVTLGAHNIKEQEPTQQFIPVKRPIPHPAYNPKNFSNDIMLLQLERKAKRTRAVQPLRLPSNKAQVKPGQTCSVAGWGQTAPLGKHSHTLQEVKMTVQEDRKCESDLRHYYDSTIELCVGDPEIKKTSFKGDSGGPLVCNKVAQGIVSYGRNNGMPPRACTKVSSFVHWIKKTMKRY
Description: SPR, Biacore 8k+, hGranzyme B captured on SA chip, single cycle kinetics, 1:1 model. On the procedure: The kinetics of test peptide binding to human Granzyme B (hGranzyme B) was determined by SPR. All experiments were performed at 25° C. using the Biacore 8k+ instrument (Cytiva, Marlborough, MA). The Biacore 8k+ Insight Evaluation Software Version 3.0 was used to fit the data with a 1:1 binding model to determine the association rate constant kₐ (M⁻¹s⁻¹, where “M” ~equals molar and “s” ~equals seconds) and the dissociation rate constant kd (s⁻¹). These rate constants were used to calculate the equilibrium dissociation constant. KD (M)=kd/kₐ.
To measure the binding kinetics of peptides of interest, surfaces were prepared by a capture method to a Series S Streptavidin (SA) chip using a 1×HBS-EP+ running buffer (Cytiva). hGranzyme B was diluted to 10 μg/mL in IX HBS-EP+ and flowed over spot 2 of each flow cell on the chip at a flow rate of 10 ul/min for 20 s to achieve a level of capture of ~1100 RU. An unmodified spot 1 of each flow cell was used as a matrix binding control or reference surface. Binding kinetics were measured using single cycle kinetics at 25° C. by injecting 5 concentrations with 3-fold serial dilutions of test peptides from 0.01 μM to 1 μM. Compound dilutions were performed manually in a running buffer containing 1×HBS-EP+(Cytiva), and a final concentration of 2% DMSO. The interaction analyses over hGranzyme B, were performed using a 120 s association time and a 900 s dissociation time. All experiments were conducted at a flow rate of 50 μL/min with a data collection rate of 10 Hz.
Peptide dilution series included 2 zero concentration points (no compound) which were averaged and subtracted from the peptide concentration injection as DMSO control responses. Binding data acquired from the reference surface (matrix binding control) were subtracted from the binding data for hGranzyme B surface on the chip to determine specific binding. Next, the association phase data were solvent corrected to account for any signal fluctuation throughout the experiment due to subtle DMSO concentration differences. Corrected response data were analyzed using the Biacore 8k+ Evaluation Software Version 3.0 according to the manufacturer. SPR data for representative compounds of the disclosure are found in Table 8.
The molecule B1 registered a Kd of 19.1 nM.

On to B2, for which binding was put at a Kd of 3.5 nM.

In turn, B3 displayed a Kd of 1.1 nM.

Turning to B4, the dissociation constant Kd amounted to 5.7 nM.

As to B5, the Kd stood at 5.5 nM.

In turn, B6 showed a Kd of 5.9 nM.

Turning to B7, the Kd was 3.8 nM.

B8 had an equilibrium dissociation constant (Kd) of 11 nM.

B9 had a Kd of 7.1 nM.

For B10, binding was characterised by a dissociation constant (Kd) of 12.4 nM.

Consider B11, for which the Kd stood at 6 nM.

Take B12: the Kd was determined as 15.6 nM.

Regarding B13, the affinity, expressed as Kd, was 6.1 nM.

The record behind these values is patent US20260207798A1, “CYCLIC PEPTIDES AS PET IMAGING AGENTS OF GRANZYME B” (priority 2022, published 2026).
